Assay results: the supplement of paper PMC10567573

B1: C22orf15 (parent)
chain: ITQSWQVSVRVQPRGRAHLLPNPY
B2: TMEM40 (parent)
chain: YGETDFHKQDGKAGLFSQEQYERN

Variants of: B1
Assay: protein stability index of a GFP-peptide fusion (GPS, HEK-293T) (PSI 1-6); higher = more stable
Conditions: c terminus: a fixed tail appended
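Also: lentivirally expressed fusions sorted by FACS into six bins by GFP to DsRed ratio, PSI derived from sequencing read proportions per bin multiplied by bin number.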

Variant | protein stability index
ITQSQQVSVRVQPRGRAHLLPNPY | 1.81
FTQSWQVSVRVQPRGRAHLLPNPY | 2.74

Variants of: B2
Assay: as above
Conditions: c terminus: a fixed tail appended

Variant | protein stability index
YPETDFHKQDGKAGLFSQEQYERN | 4.95
YIETDFHKQDGKAGLFSQEQYERN | 2.65
YEETDFHKQDGKAGLFSQEQYERN | 5.38
YTETDFHKQDGKAGLFSQEQYERN | 4.11
YWETDFHKQDGKAGLFSQEQYERN | 3.62
YGETDFHKQDGKAGFFSQEQYERN | 3.32
YGETDFHKQDGKAGKFSQEQYERN | 4.49
YGETDFHKQDGKAGMFSQEQYERN | 4.27
YGETDFHKQDGKAGDFSQEQYERN | 5.02
YGETDFHKQDGKAGLFSQEQDERN | 4.95
YGETDFHKQDGKAGLFSQEQHERN | 4.73
YGETDFHKQDGKAGLFSQEQEERN | 4.35
YGETDFHKQDGKAGLFSQEQIERN | 4.65
YGETDFHKQDGKAGLFSQEQLERN | 4.07
YGETDFHKQDGKAGLFSQEQFERN | 4.25
YGETDFHKQDGKAGLFSQEQCERN | 3.95
YGETDFHKQDGKAGLFSQCQYERN | 3.48
YGETDFHKQDGKAGLFSQIQYERN | 2.23
YGETDFHKQDGKAGLFSQHQYERN | 3.29
YGETDFHKQDGKAGLFSQDQYERN | 4.45
YGETDFHKQDGKAGLFSQWQYERN | 2.64
YGETDFHKQDGKAGLFSQTQYERN | 3.73
YGETDFHKQDGKAGLFSQNQYERN | 3.9
YGETDFHKQDGKAGLFSQFQYERN | 2.54

Variant | protein stability index
YGETDFHKQDGKAGLFSQQQYERN | 3.7
YGETDFHKQDGKAGLFSQAQYERN | 3.54
YGETDFHKQDGKAGLFSQVQYERN | 3.22
YGETMFHKQDGKAGLFSQEQYERN | 2.58
YGETAFHKQDGKAGLFSQEQYERN | 2.92
YGETQFHKQDGKAGLFSQEQYERN | 3.81
YGETVFHKQDGKAGLFSQEQYERN | 3.2
YGETTFHKQDGKAGLFSQEQYERN | 2.99
YGETLFHKQDGKAGLFSQEQYERN | 3.07
YGETNFHKQDGKAGLFSQEQYERN | 3.24
YGETFFHKQDGKAGLFSQEQYERN | 1.49
YGETRFHKQDGKAGLFSQEQYERN | 3.38
YGETKFHKQDGKAGLFSQEQYERN | 3.2
YGETCFHKQDGKAGLFSQEQYERN | 2.36
YGETDFHKQDGKAGLRSQEQYERN | 4.81
YGETDFHKQDGKAGLVSQEQYERN | 4.65
YGETDFHKQDGKAGLPSQEQYERN | 5.02
YGETDFHKQDGKAGLDSQEQYERN | 5.25
YGETDFHKQDGKAGLKSQEQYERN | 4.38
YGETDFHKQDGKAGLYSQEQYERN | 5.04
YGETDFHKQDGKAGLMSQEQYERN | 4.53
YGETDFHKQDGKAGLGSQEQYERN | 4.84
YGETDFHKQDGKAGLSSQEQYERN | 4.88
YGETDFHKQDGKAGLISQEQYERN | 4.58

Variant | protein stability index
YGETDFHKQDGHAGLFSQEQYERN | 4.28
YGETDFHKQDGLAGLFSQEQYERN | 3.66
YGETDFHKQDGIAGLFSQEQYERN | 3.93
YGETDFHKQDGTAGLFSQEQYERN | 4.5
YGETDFHKQDGFAGLFSQEQYERN | 4.21
YGETDFHKQDGPAGLFSQEQYERN | 4.38
YGETDFHKQDGYAGLFSQEQYERN | 3.99
YGETDFHKQDGVAGLFSQEQYERN | 4.49
YGETDFHKQDGAAGLFSQEQYERN | 4.25
YGETDFHKQDGGAGLFSQEQYERN | 4.19
YGETDFHKQDGWAGLFSQEQYERN | 3.21
YGETDFHKQDGQAGLFSQEQYERN | 4.21
YGETDFHKQDGKAALFSQEQYERN | 4.02
YGETDFHKQDGKAQLFSQEQYERN | 4.29
YGETDFHKQDGKAHLFSQEQYERN | 4.06
YGETDFHKQDGKATLFSQEQYERN | 4.06
YGETDFHKQDGKAKLFSQEQYERN | 4.32
YGETDFHKQDGKAWLFSQEQYERN | 2.72
YGETDFHKQDGKAVLFSQEQYERN | 4.09
YGETDFHKQDGKAGLFSQEQYERV | 3.67
YGETDFHKQDGKAGLFSQEQYERA | 3.63
YGETDFHKQDGKAGLFSQEQYERF | 3.8
YGETDFHKQDGKAGLFSQEQYERC | 3.98
YGETDFHKQDGKAGLFSQEQYERY | 3.85

Variant | protein stability index
YGETDFHKQDGKAGLFSQEQYERG | 4.12
YGETDFHKQDGKAGLFSQEQYERE | 4.54
YGETDFHKQDGKAGLFSQEQYERM | 3.89
YGETDFHKQDGKAGLFSQEQYERI | 3.54
YGETDFHKQDGKAGLFSQESYERN | 4.3
YGETDFHKQDGKAGLFSQEHYERN | 4.01
YGETDFHKQDGKAGLFSQELYERN | 3.42
YGETDFHKQDGKAGLFSQECYERN | 3.5
YGETDFHKQDGKAGLFSQEDYERN | 4.71
YGETDFHKQDGKAGLFSQEGYERN | 3.48
YGETDFHKQDGKAGLFSQEIYERN | 3.85
YGETDFHKQDGKAGLFSQEPYERN | 3.55
YGETDFHKQWGKAGLFSQEQYERN | 2.27
YGETDFHKQNGKAGLFSQEQYERN | 3.92
YGETDFHKQQGKAGLFSQEQYERN | 2.9
YGETDFHKQVGKAGLFSQEQYERN | 2
YGETDFHKQHGKAGLFSQEQYERN | 2.77
YGETDFHKQCGKAGLFSQEQYERN | 2.46
YGETDFHKQEGKAGLFSQEQYERN | 3.72
YGETDFHKQFGKAGLFSQEQYERN | 2.26
YGETDFHKQMGKAGLFSQEQYERN | 1.47
YGMTDFHKQDGKAGLFSQEQYERN | 3.75
YGFTDFHKQDGKAGLFSQEQYERN | 3.57
YGKTDFHKQDGKAGLFSQEQYERN | 3.55

Variant | protein stability index
YGETDFHKQDGKAGLFSGEQYERN | 4.26
YGETDFHKQDGKAGLFSAEQYERN | 3.66
YGETDFHKQDGKAGLFSPEQYERN | 2.05
YGETDFHKQDGKAGLFSYEQYERN | 3.4
YGETDFHKQDGKAGLFSKEQYERN | 4.55
YGETDFHKQDGKAGLFSWEQYERN | 3.45
YGETDFHKQDGKAGLFSHEQYERN | 4.29
YGETDFHKNDGKAGLFSQEQYERN | 4.53
YGETDFHKMDGKAGLFSQEQYERN | 3.17
YGETDFHKSDGKAGLFSQEQYERN | 4.33
YGETDFHKVDGKAGLFSQEQYERN | 3.6
YGETDFHKIDGKAGLFSQEQYERN | 3.71
YGETDFHKGDGKAGLFSQEQYERN | 3.73
YGETDFHKQDGKQGLFSQEQYERN | 3.93
YGETDFHKQDGKKGLFSQEQYERN | 4.04
YGETDFHKQDGKFGLFSQEQYERN | 3.83
YGETDFHKQDGKDGLFSQEQYERN | 4.28
YGETDFHKQDGKCGLFSQEQYERN | 3.28
YGETDFHKQDGKNGLFSQEQYERN | 4.54
YGETDFHKQDYKAGLFSQEQYERN | 3.75
YGETDFHKQDEKAGLFSQEQYERN | 4.68
YGETDFHKQDSKAGLFSQEQYERN | 4.55
YGETDFHKQDNKAGLFSQEQYERN | 4.32
YGETDFHKQDPKAGLFSQEQYERN | 3.46

Variant | protein stability index
YGETDFHKQDFKAGLFSQEQYERN | 3.86
YGETDFHKQDHKAGLFSQEQYERN | 4.16
YGETDFHMQDGKAGLFSQEQYERN | 3.71
YGETDFHTQDGKAGLFSQEQYERN | 4.46
YGETDFHDQDGKAGLFSQEQYERN | 5.12
YGETDFHQQDGKAGLFSQEQYERN | 4.66
YGETDFHSQDGKAGLFSQEQYERN | 4.66
YGETDFHVQDGKAGLFSQEQYERN | 4.34
YGETDFHGQDGKAGLFSQEQYERN | 4.31
YGETDFHRQDGKAGLFSQEQYERN | 3.86
KGETDFHKQDGKAGLFSQEQYERN | 5.01
RGETDFHKQDGKAGLFSQEQYERN | 5.01
FGETDFHKQDGKAGLFSQEQYERN | 4.88
MGETDFHKQDGKAGLFSQEQYERN | 4.38
LGETDFHKQDGKAGLFSQEQYERN | 5.45
PGETDFHKQDGKAGLFSQEQYERN | 5.22
WGETDFHKQDGKAGLFSQEQYERN | 4.37
TGETDFHKQDGKAGLFSQEQYERN | 5.14
YGEGDFHKQDGKAGLFSQEQYERN | 4.61
YGECDFHKQDGKAGLFSQEQYERN | 4.34
YGEKDFHKQDGKAGLFSQEQYERN | 3.59
YGEMDFHKQDGKAGLFSQEQYERN | 3.67
YGESDFHKQDGKAGLFSQEQYERN | 4.06
YGEPDFHKQDGKAGLFSQEQYERN | 3.62

Variant | protein stability index
YGEADFHKQDGKAGLFSQEQYERN | 3.78
YGETDFHKQDGKAGLFSQEQYDRN | 4.03
YGETDFHKQDGKAGLFSQEQYYRN | 3.23
YGETDFHKQDGKAGLFSQEQYTRN | 4.01
YGETDFHKQDGKAGLFSQEQYWRN | 2.74
YGETDFHKQDGKAGLFSQEQYIRN | 3.29
YGETDFHKQDGKAGLFSQEQYGRN | 3.83
YGETDFHKQDGKAGLFSQEQYMRN | 3.64
YGETDFAKQDGKAGLFSQEQYERN | 4.48
YGETDFFKQDGKAGLFSQEQYERN | 1.88
YGETDFDKQDGKAGLFSQEQYERN | 5.38
YGETDFLKQDGKAGLFSQEQYERN | 3.92
YGETDFEKQDGKAGLFSQEQYERN | 4.93
YGETDFSKQDGKAGLFSQEQYERN | 4.67
YGETDFMKQDGKAGLFSQEQYERN | 3.9
YGETDFPKQDGKAGLFSQEQYERN | 4.3
YGETDLHKQDGKAGLFSQEQYERN | 4.98
YGETDSHKQDGKAGLFSQEQYERN | 5.6
YGETDDHKQDGKAGLFSQEQYERN | 5.26
YGETDGHKQDGKAGLFSQEQYERN | 5.25
YGETDPHKQDGKAGLFSQEQYERN | 4.94
YGETDIHKQDGKAGLFSQEQYERN | 4.73
YGETDYHKQDGKAGLFSQEQYERN | 4.41
YGETDQHKQDGKAGLFSQEQYERN | 4.36

Variant | protein stability index
YGETDAHKQDGKAGLFSQEQYERN | 5.22
YGETDCHKQDGKAGLFSQEQYERN | 4.54
YGETDFHKQDGKAGLFSQEQYELN | 4
YGETDFHKQDGKAGLFSQEQYEQN | 4.3
YGETDFHKQDGKAGLFSQEQYESN | 4.37
YGETDFHKQDGKAGLFSQEQYEIN | 4.11
YGETDFHKQDGKAGLFSQEQYECN | 4.32
YGETDFHKQDGKAGLFSQEQYEWN | 4.13
YGETDFHKQDGKAGLFSQEQYEFN | 4.04
YGETDFHKQDGKAGLFSQEQYETN | 4.62
YGETDFHKQDGKAGLFCQEQYERN | 4.07
YGETDFHKQDGKAGLFLQEQYERN | 3.35
YGETDFHKQDGKAGLFIQEQYERN | 3.81
YGETDFHKQDGKAGLFQQEQYERN | 4.48
YGETDFHKQDGKAGLFHQEQYERN | 3.54
YGETDFHKQDGKAGLFWQEQYERN | 1.97
YGETDFHKQDGKAGLFDQEQYERN | 3.98
YGETDFHKQDGKAGLFVQEQYERN | 4.08
